Experimental findings from the supplement of paper PMC9112550, “Optimization of the antimicrobial peptide Bac7 by deep mutational scanning” (BMC Biology, 2022) are described below.

The series has as its system Escherichia coli TOP10. Kind of series: shrunken log2 fold change of peptide-encoding DNA abundance (4.5 h post-induction vs induction); higher = less antimicrobial activity (less host growth inhibition). The settings on record: time post-induction: 4.5 h; library: site-saturation at positions 5, 18, 19, 20.
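Note: peptides expressed intracellularly from a pBAD plasmid library in pooled LB shake-flask culture, induced with 0.3% L-arabinose, DNA abundance read by NGS, three biological replicates, DESeq2 with apeglm shrinkage.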

For the sequence RRIRPRPPRLPRPRPRPNSAPRP, the “shrunken log2 fold change” value was 0.204. As for RRIRGRPPRLPRPRPRPYLDPRP, the “shrunken log2 fold change” value came to 0.0767. As for RRIRVRPPRLPRPRPRPYADPRP, the figure is -0.543; as for RRIRYRPPRLPRPRPRPHWCPRP, -0.0867; as for RRIRVRPPRLPRPRPRPMTPPRP, 0.452.

As for RRIRCRPPRLPRPRPRPQMAPRP, the “shrunken log2 fold change” value is -0.117. As for RRIRIRPPRLPRPRPRPPWWPRP, the “shrunken log2 fold change” value came out at 0.516.

In the case of RRIRHRPPRLPRPRPRPYHQPRP, the “shrunken log2 fold change” value is -0.981.

Take RRIRERPPRLPRPRPRPMNTPRP: the “shrunken log2 fold change” value was -0.0609. As for RRIRVRPPRLPRPRPRPPWDPRP, the figure is 0.445.

As for RRIRDRPPRLPRPRPRPPSEPRP, the “shrunken log2 fold change” value amounted to 0.459. Turning to RRIRQRPPRLPRPRPRPLTIPRP, the “shrunken log2 fold change” value was -0.375. Regarding RRIRTRPPRLPRPRPRPTPAPRP, the “shrunken log2 fold change” value amounted to 0.57.

Consider RRIRIRPPRLPRPRPRPNYAPRP, for which the “shrunken log2 fold change” value was -0.381. Consider RRIRGRPPRLPRPRPRPAQNPRP, for which the “shrunken log2 fold change” value is 0.81. Under RRIRPRPPRLPRPRPRPQHHPRP stands -0.302. As for RRIRMRPPRLPRPRPRPRDIPRP, the figure is -0.0288; as for RRIRVRPPRLPRPRPRPQGQPRP, 0.00581. Regarding RRIRRRPPRLPRPRPRPNESPRP, the “shrunken log2 fold change” value was determined as 0.137. RRIRIRPPRLPRPRPRPYLFPRP: the “shrunken log2 fold change” value is -0.376. As to RRIRARPPRLPRPRPRPMSIPRP, the “shrunken log2 fold change” value was -0.118. As for RRIRKRPPRLPRPRPRPFHAPRP, the figure is -0.179. As for RRIRTRPPRLPRPRPRPPWGPRP, the figure is 0.0724; as for RRIRKRPPRLPRPRPRPQQSPRP, -0.0568. Turning to RRIRLRPPRLPRPRPRPMWYPRP, the “shrunken log2 fold change” value is 0.0493. As for RRIRGRPPRLPRPRPRPCDQPRP, the figure is -0.0239.

As for RRIRIRPPRLPRPRPRPKGFPRP, the “shrunken log2 fold change” value is 0.0347. As for RRIRTRPPRLPRPRPRPRFLPRP, the figure is 0.903. In the case of RRIRERPPRLPRPRPRPTSTPRP, the “shrunken log2 fold change” value was -0.319. As for RRIRTRPPRLPRPRPRPFLGPRP, the figure is -0.0873. Under RRIRTRPPRLPRPRPRPEVCPRP stands 0.212; under RRIRARPPRLPRPRPRPYQGPRP, -0.135; under RRIRRRPPRLPRPRPRPRCAPRP, 0.469. RRIRHRPPRLPRPRPRPKVVPRP: the “shrunken log2 fold change” value is -0.00398.

RRIRDRPPRLPRPRPRPIDKPRP: the “shrunken log2 fold change” value is -0.0708.

With RRIRWRPPRLPRPRPRPYCYPRP, the “shrunken log2 fold change” value is -0.562. Under RRIRCRPPRLPRPRPRPYQIPRP stands -0.852. With RRIRCRPPRLPRPRPRPCDGPRP, the “shrunken log2 fold change” value was 0.0624. As for RRIRYRPPRLPRPRPRPQAGPRP, the figure is 0.00284. Turning to RRIRGRPPRLPRPRPRPYAGPRP, the “shrunken log2 fold change” value is -0.0412.

On to RRIRDRPPRLPRPRPRPFVIPRP, for which the “shrunken log2 fold change” value came out at 0.129.

Turning to RRIRYRPPRLPRPRPRPVNGPRP, the “shrunken log2 fold change” value was -0.338. Turning to RRIRPRPPRLPRPRPRPHTFPRP, the “shrunken log2 fold change” value is -0.667.

For the sequence RRIRDRPPRLPRPRPRPQKEPRP, the “shrunken log2 fold change” value was -0.0595. With RRIRTRPPRLPRPRPRPLVIPRP, the “shrunken log2 fold change” value is -0.44.

As to RRIRTRPPRLPRPRPRPQTCPRP, the “shrunken log2 fold change” value is -0.176. As for RRIRVRPPRLPRPRPRPDGHPRP, the figure is -0.00145. RRIRGRPPRLPRPRPRPLFSPRP: the “shrunken log2 fold change” value came to 0.113. Consider RRIRHRPPRLPRPRPRPTFFPRP, for which the “shrunken log2 fold change” value is 0.0852.

In the case of RRIRPRPPRLPRPRPRPCMKPRP, the “shrunken log2 fold change” value is -0.0472. On to RRIRTRPPRLPRPRPRPRRNPRP, for which the “shrunken log2 fold change” value came out at 0.125. Under RRIRSRPPRLPRPRPRPHCRPRP stands -0.172; under RRIRTRPPRLPRPRPRPFCNPRP, 0.0687.

For the sequence RRIRTRPPRLPRPRPRPDIYPRP, the “shrunken log2 fold change” value was -0.138. On to RRIRDRPPRLPRPRPRPGRCPRP, for which the “shrunken log2 fold change” value is 0.53. Under RRIRKRPPRLPRPRPRPRCAPRP stands 0.568. Under RRIRQRPPRLPRPRPRPHTAPRP stands -0.926; under RRIRVRPPRLPRPRPRPGRYPRP, 0.303. As for RRIRGRPPRLPRPRPRPQQRPRP, the figure is 1.43; as for RRIRTRPPRLPRPRPRPYAMPRP, -0.462; as for RRIRFRPPRLPRPRPRPLLSPRP, 0.0127. RRIRPRPPRLPRPRPRPMTKPRP: the “shrunken log2 fold change” value came to 0.0497.

Turning to RRIRFRPPRLPRPRPRPEMPPRP, the “shrunken log2 fold change” value was -0.142. Regarding RRIRYRPPRLPRPRPRPEAAPRP, the “shrunken log2 fold change” value is 0.319. As for RRIRTRPPRLPRPRPRPGGSPRP, the figure is 0.135; as for RRIRPRPPRLPRPRPRPACNPRP, 0.00285; as for RRIRVRPPRLPRPRPRPCVAPRP, 0.159.

Regarding RRIRTRPPRLPRPRPRPIAMPRP, the “shrunken log2 fold change” value is -0.387. For the sequence RRIRVRPPRLPRPRPRPDASPRP, the “shrunken log2 fold change” value amounted to 0.0719. Under RRIRARPPRLPRPRPRPVCAPRP stands 0.571; under RRIRYRPPRLPRPRPRPINFPRP, -0.299; under RRIRVRPPRLPRPRPRPQMAPRP, -0.302. Under RRIRARPPRLPRPRPRPANPPRP stands 0.425; under RRIRNRPPRLPRPRPRPGWKPRP, -0.00965; under RRIRNRPPRLPRPRPRPGDFPRP, 0.264. As for RRIRGRPPRLPRPRPRPSSPPRP, the figure is -0.0496; as for RRIRQRPPRLPRPRPRPQWTPRP, -0.126. As to RRIRERPPRLPRPRPRPIIAPRP, the “shrunken log2 fold change” value was -0.106. Under RRIRCRPPRLPRPRPRPQINPRP stands -0.685; under RRIRTRPPRLPRPRPRPDCAPRP, 0.719.

In the case of RRIRYRPPRLPRPRPRPPIYPRP, the “shrunken log2 fold change” value is -0.676. Take RRIRIRPPRLPRPRPRPTLQPRP: the “shrunken log2 fold change” value amounted to 0.00305. With RRIRQRPPRLPRPRPRPEFAPRP, the “shrunken log2 fold change” value worked out at 0.482.

On to RRIRRRPPRLPRPRPRPQAHPRP, for which the “shrunken log2 fold change” value is 0.544.

RRIRERPPRLPRPRPRPGKIPRP: the “shrunken log2 fold change” value is 0.139. RRIRCRPPRLPRPRPRPCPDPRP: the “shrunken log2 fold change” value is -0.612.

With RRIRWRPPRLPRPRPRPMPHPRP, the “shrunken log2 fold change” value amounted to 0.323.

As for RRIRERPPRLPRPRPRPFIMPRP, the “shrunken log2 fold change” value is -0.0895. Consider RRIRGRPPRLPRPRPRPSCYPRP, for which the “shrunken log2 fold change” value is -0.0977. As for RRIRHRPPRLPRPRPRPHQCPRP, the figure is 1.73.

With RRIRIRPPRLPRPRPRPSQKPRP, the “shrunken log2 fold change” value was -0.187.

As to RRIRARPPRLPRPRPRPFFFPRP, the “shrunken log2 fold change” value was determined as 0.419. Turning to RRIRVRPPRLPRPRPRPTMQPRP, the “shrunken log2 fold change” value turned out to be 0.158. For RRIRHRPPRLPRPRPRPYRPPRP, the “shrunken log2 fold change” value is -0.115.

Consider RRIRRRPPRLPRPRPRPHASPRP, for which the “shrunken log2 fold change” value turned out to be 0.201. As for RRIRARPPRLPRPRPRPSWVPRP, the figure is -0.174; as for RRIRLRPPRLPRPRPRPLHYPRP, -0.00799; as for RRIRDRPPRLPRPRPRPIGEPRP, -0.00228. As for RRIRDRPPRLPRPRPRPASTPRP, the figure is 0.397; as for RRIRTRPPRLPRPRPRPQWWPRP, 0.199. As for RRIRERPPRLPRPRPRPTLDPRP, the figure is 0.149. With RRIRWRPPRLPRPRPRPEHTPRP, the “shrunken log2 fold change” value amounted to 0.489. Under RRIRCRPPRLPRPRPRPRAHPRP stands 0.361; under RRIRGRPPRLPRPRPRPCYLPRP, -0.177; under RRIRFRPPRLPRPRPRPTAFPRP, 0.0899.

With RRIRFRPPRLPRPRPRPIMHPRP, the “shrunken log2 fold change” value was -0.212. Under RRIRWRPPRLPRPRPRPRKEPRP stands 0.0466; under RRIRQRPPRLPRPRPRPSMRPRP, 0.0637; under RRIRFRPPRLPRPRPRPQMMPRP, -0.313. As for RRIRWRPPRLPRPRPRPVTHPRP, the figure is -0.0273.

Regarding RRIRQRPPRLPRPRPRPHRGPRP, the “shrunken log2 fold change” value was 0.0502.

With RRIRVRPPRLPRPRPRPSVIPRP, the “shrunken log2 fold change” value was -0.239. As for RRIRGRPPRLPRPRPRPQSRPRP, the figure is 0.328; as for RRIRVRPPRLPRPRPRPMYEPRP, -0.774; as for RRIRTRPPRLPRPRPRPVFGPRP, 0.227. Under RRIRYRPPRLPRPRPRPCMLPRP stands -1.02; under RRIRYRPPRLPRPRPRPGSYPRP, -0.349; under RRIRTRPPRLPRPRPRPMKLPRP, -0.192.

For the sequence RRIRNRPPRLPRPRPRPCHFPRP, the “shrunken log2 fold change” value is -0.166.

Regarding RRIRTRPPRLPRPRPRPISDPRP, the “shrunken log2 fold change” value is -0.0355. As for RRIRARPPRLPRPRPRPKAKPRP, the figure is 0.287.

With RRIRRRPPRLPRPRPRPCMYPRP, the “shrunken log2 fold change” value is -0.0801. Under RRIRTRPPRLPRPRPRPGIMPRP stands -0.452; under RRIRNRPPRLPRPRPRPFSLPRP, -0.0274. RRIRIRPPRLPRPRPRPFYFPRP: the “shrunken log2 fold change” value was -0.448.
